Measured values from US20160297884A1 (Pfizer, published 2016).

T1: Human BCMA (human, UniProt Q02223 1-54, limits assumed)
T1 construct: Soluble analyte in SPR; construct not described; also called huBCMA; B-cell maturation antigen
T1 sequence (looked up): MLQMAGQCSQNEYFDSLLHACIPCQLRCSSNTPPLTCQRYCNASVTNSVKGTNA


What was measured:
Human BCMA = target: T1, Human BCMA; test: SPR, IgG immobilised, 37 C
Outline: (§1)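 IgGs were amine-coupled (EDC/NHS, 20 μg/mL in acetate pH 4.5) and BCMA, human or cynomolgus, was injected by kinetic titration at 0.08, 0.4, 2, 10 and 50 nM, 2 min each, in HBS-T+ pH 7.4 with 1 mg/mL BSA at 37° C or 25° C. Dissociation was followed for 2 hours.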

cynomolgus monkey BCMA = target: T2, cynomolgus monkey BCMA (cynomolgus monkey, UniProt A0A2K5UD97 1-53); test: SPR, IgG immobilised, 37 C
T2 construct: Soluble analyte in SPR; construct not described; also called cyBCMA; Cyno BCMA
T2 sequence (A0A2K5UD97 entry or part of it): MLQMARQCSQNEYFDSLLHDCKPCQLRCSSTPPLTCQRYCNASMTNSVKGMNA
Outline: as §1

Binder | Kd (Human BCMA) | T ½ (Human BCMA) | koff (Human BCMA) | kon (Human BCMA) | Kd (cynomolgus monkey BCMA) | T ½ (cynomolgus monkey BCMA) | koff (cynomolgus monkey BCMA) | kon (cynomolgus monkey BCMA)
L3.PY/L1.AH/H2.DY (antibody, V domains shown, IgG) VH: EVQLLESGGGLVQPGGSLRLSCAASGFTFGSYAMTWVRQAPGKGLEWVSAIDYSGGNTFYADSVKGRFTISRDNSKNTLYLQMNSLRAEDTAVYYCARVSPIASGMDYWGQGTLVTVSS VL: EIVLTQSPGTLSLSPGERATLSCRASQSVSAHYLAWYQQKPGQAPRLLIYGASSRATGIPDRFSGSGSGTDFTLTISRLEPEDFAVYYCQHYPYPPSFTFGQGTKVEIK | 0.5 nM | 7.62 min | 0.00152 s⁻¹ | 3.05e+06 M⁻¹ s⁻¹ | 1.95 nM | 2.56 min | 0.00451 s⁻¹ | 2.32e+06 M⁻¹ s⁻¹
L3.PY/L1.FF/P6E01 (antibody, V domains shown, IgG) VH: EVQLLESGGGLVQPGGSLRLSCAASGFTFGSYAMTWVRQAPGKGLEWVSAISGSGGNTFYADSVKGRFTISRDNSKNTLYLQMNSLRAEDTAVYYCARVSPIASGMDYWGQGTLVTVSS VL: EIVLTQSPGTLSLSPGERATLSCRASQSVSSFFLAWYQQKPGQAPRLLIYGASSRATGIPDRFSGSGSGTDFTLTISRLEPEDFAVYYCQHYPYPPSFTFGQGTKVEIK | 0.59 nM | 8.18 min | 0.00141 s⁻¹ | 2.39e+06 M⁻¹ s⁻¹ | 2.41 nM | 1.96 min | 0.00591 s⁻¹ | 2.45e+06 M⁻¹ s⁻¹
L3.PY/L1.AH/H3.AE (antibody, V domains shown, IgG) VH: EVQLLESGGGLVQPGGSLRLSCAASGFTFGSYAMTWVRQAPGKGLEWVSAISGSGGNTFYADSVKGRFTISRDNSKNTLYLQMNSLRAEDTAVYYCARVSPIAAEMDYWGQGTLVTVSS VL: EIVLTQSPGTLSLSPGERATLSCRASQSVSAHYLAWYQQKPGQAPRLLIYGASSRATGIPDRFSGSGSGTDFTLTISRLEPEDFAVYYCQHYPYPPSFTFGQGTKVEIK | 0.52 nM | 6.7 min | 0.00173 s⁻¹ | 3.32e+06 M⁻¹ s⁻¹ | 1.58 nM | 3.25 min | 0.00356 s⁻¹ | 2.25e+06 M⁻¹ s⁻¹
L3.PY/L1.AH/H2.QR (antibody, V domains shown, IgG) VH: EVQLLESGGGLVQPGGSLRLSCAASGFTFGSYAMTWVRQAPGKGLEWVSAISGSGGNTFYADQRKGRFTISRDNSKNTLYLQMNSLRAEDTAVYYCARVSPIASGMDYWGQGTLVTVSS VL: EIVLTQSPGTLSLSPGERATLSCRASQSVSAHYLAWYQQKPGQAPRLLIYGASSRATGIPDRFSGSGSGTDFTLTISRLEPEDFAVYYCQHYPYPPSFTFGQGTKVEIK | 0.58 nM | 6.39 min | 0.00181 s⁻¹ | 3.13e+06 M⁻¹ s⁻¹ | 2.23 nM | 2.35 min | 0.00491 s⁻¹ | 2.2e+06 M⁻¹ s⁻¹
L3.PY/L1.PS/H2.DY (antibody, V domains shown, IgG) VH: EVQLLESGGGLVQPGGSLRLSCAASGFTFGSYAMTWVRQAPGKGLEWVSAIDYSGGNTFYADSVKGRFTISRDNSKNTLYLQMNSLRAEDTAVYYCARVSPIASGMDYWGQGTLVTVSS VL: EIVLTQSPGTLSLSPGERATLSCRASQSVSSSYPSWYQQKPGQAPRLLIYGASSRATGIPDRFSGSGSGTDFTLTISRLEPEDFAVYYCQHYPYPPSFTFGQGTKVEIK | 1.12 nM | 3.2 min | 0.00361 s⁻¹ | 3.22e+06 M⁻¹ s⁻¹ | 1.99 nM | 3.06 min | 0.00378 s⁻¹ | 1.9e+06 M⁻¹ s⁻¹
L3.PY/L1.AH/H2.YQ (antibody, V domains shown, IgG) VH: EVQLLESGGGLVQPGGSLRLSCAASGFTFGSYAMTWVRQAPGKGLEWVSAISYQGGNTFYADSVKGRFTISRDNSKNTLYLQMNSLRAEDTAVYYCARVSPIASGMDYWGQGTLVTVSS VL: EIVLTQSPGTLSLSPGERATLSCRASQSVSAHYLAWYQQKPGQAPRLLIYGASSRATGIPDRFSGSGSGTDFTLTISRLEPEDFAVYYCQHYPYPPSFTFGQGTKVEIK | 0.8 nM | 6 min | 0.00193 s⁻¹ | 2.42e+06 M⁻¹ s⁻¹ | 2.74 nM | 2.68 min | 0.00431 s⁻¹ | 1.58e+06 M⁻¹ s⁻¹
L3.PY/L1.PS/H2.LT (antibody, V domains shown, IgG) VH: EVQLLESGGGLVQPGGSLRLSCAASGFTFGSYAMTWVRQAPGKGLEWVSAISLTGGNTFYADSVKGRFTISRDNSKNTLYLQMNSLRAEDTAVYYCARVSPIASGMDYWGQGTLVTVSS VL: EIVLTQSPGTLSLSPGERATLSCRASQSVSSSYPSWYQQKPGQAPRLLIYGASSRATGIPDRFSGSGSGTDFTLTISRLEPEDFAVYYCQHYPYPPSFTFGQGTKVEIK | 1.37 nM | 2.49 min | 0.00465 s⁻¹ | 3.4e+06 M⁻¹ s⁻¹ | 1.89 nM | 2.81 min | 0.00411 s⁻¹ | 2.17e+06 M⁻¹ s⁻¹
L3.PY/L1.AH/H2.QL (antibody, V domains shown, IgG) VH: EVQLLESGGGLVQPGGSLRLSCAASGFTFGSYAMTWVRQAPGKGLEWVSAISGSGGNTFYADQLKGRFTISRDNSKNTLYLQMNSLRAEDTAVYYCARVSPIASGMDYWGQGTLVTVSS VL: EIVLTQSPGTLSLSPGERATLSCRASQSVSAHYLAWYQQKPGQAPRLLIYGASSRATGIPDRFSGSGSGTDFTLTISRLEPEDFAVYYCQHYPYPPSFTFGQGTKVEIK | 0.53 nM | 7.22 min | 0.0016 s⁻¹ | 3.04e+06 M⁻¹ s⁻¹ | 3.65 nM | 1.21 min | 0.00955 s⁻¹ | 2.62e+06 M⁻¹ s⁻¹
L3.PY/L1.PH/P6E01 (antibody, V domains shown, IgG) VH: EVQLLESGGGLVQPGGSLRLSCAASGFTFGSYAMTWVRQAPGKGLEWVSAISGSGGNTFYADSVKGRFTISRDNSKNTLYLQMNSLRAEDTAVYYCARVSPIASGMDYWGQGTLVTVSS VL: EIVLTQSPGTLSLSPGERATLSCRASQSVSPHYLAWYQQKPGQAPRLLIYGASSRATGIPDRFSGSGSGTDFTLTISRLEPEDFAVYYCQHYPYPPSFTFGQGTKVEIK | 0.32 nM | 12.7 min | 0.000913 s⁻¹ | 2.81e+06 M⁻¹ s⁻¹ | 3.63 nM | 1.46 min | 0.00789 s⁻¹ | 2.17e+06 M⁻¹ s⁻¹
L3.PY/L1.AH/H2.HA (antibody, V domains shown, IgG) VH: EVQLLESGGGLVQPGGSLRLSCAASGFTFGSYAMTWVRQAPGKGLEWVSAISHAGGNTFYADSVKGRFTISRDNSKNTLYLQMNSLRAEDTAVYYCARVSPIASGMDYWGQGTLVTVSS VL: EIVLTQSPGTLSLSPGERATLSCRASQSVSAHYLAWYQQKPGQAPRLLIYGASSRATGIPDRFSGSGSGTDFTLTISRLEPEDFAVYYCQHYPYPPSFTFGQGTKVEIK | 0.54 nM | 6.37 min | 0.00181 s⁻¹ | 3.33e+06 M⁻¹ s⁻¹ | 1.7 nM | 2.63 min | 0.00439 s⁻¹ | 2.58e+06 M⁻¹ s⁻¹
L3.PY/L1.AH/H2.LT (antibody, V domains shown, IgG) VH: EVQLLESGGGLVQPGGSLRLSCAASGFTFGSYAMTWVRQAPGKGLEWVSAISLTGGNTFYADSVKGRFTISRDNSKNTLYLQMNSLRAEDTAVYYCARVSPIASGMDYWGQGTLVTVSS VL: EIVLTQSPGTLSLSPGERATLSCRASQSVSAHYLAWYQQKPGQAPRLLIYGASSRATGIPDRFSGSGSGTDFTLTISRLEPEDFAVYYCQHYPYPPSFTFGQGTKVEIK | 0.39 nM | 9.38 min | 0.00123 s⁻¹ | 3.16e+06 M⁻¹ s⁻¹ | 1.35 nM | 3.91 min | 0.00296 s⁻¹ | 2.19e+06 M⁻¹ s⁻¹
L3.PY/L1.AH/P6E01 (antibody, V domains shown, IgG) VH: EVQLLESGGGLVQPGGSLRLSCAASGFTFGSYAMTWVRQAPGKGLEWVSAISGSGGNTFYADSVKGRFTISRDNSKNTLYLQMNSLRAEDTAVYYCARVSPIASGMDYWGQGTLVTVSS VL: EIVLTQSPGTLSLSPGERATLSCRASQSVSAHYLAWYQQKPGQAPRLLIYGASSRATGIPDRFSGSGSGTDFTLTISRLEPEDFAVYYCQHYPYPPSFTFGQGTKVEIK | 0.49 nM | 9.19 min | 0.00126 s⁻¹ | 2.55e+06 M⁻¹ s⁻¹ | 2.65 nM | 2.02 min | 0.00572 s⁻¹ | 2.16e+06 M⁻¹ s⁻¹
L3.PY/L1.AH/H3.AQ (antibody, V domains shown, IgG) VH: EVQLLESGGGLVQPGGSLRLSCAASGFTFGSYAMTWVRQAPGKGLEWVSAISGSGGNTFYADSVKGRFTISRDNSKNTLYLQMNSLRAEDTAVYYCARVSPIAAQMDYWGQGTLVTVSS VL: EIVLTQSPGTLSLSPGERATLSCRASQSVSAHYLAWYQQKPGQAPRLLIYGASSRATGIPDRFSGSGSGTDFTLTISRLEPEDFAVYYCQHYPYPPSFTFGQGTKVEIK | 0.65 nM | 5.85 min | 0.00197 s⁻¹ | 3.03e+06 M⁻¹ s⁻¹ | 1.78 nM | 2.9 min | 0.00399 s⁻¹ | 2.24e+06 M⁻¹ s⁻¹
L3.PY/L1.AH/H3.YA (antibody, V domains shown, IgG) VH: EVQLLESGGGLVQPGGSLRLSCAASGFTFGSYAMTWVRQAPGKGLEWVSAISGSGGNTFYADSVKGRFTISRDNSKNTLYLQMNSLRAEDTAVYYCARVSPIYAGMDYWGQGTLVTVSS VL: EIVLTQSPGTLSLSPGERATLSCRASQSVSAHYLAWYQQKPGQAPRLLIYGASSRATGIPDRFSGSGSGTDFTLTISRLEPEDFAVYYCQHYPYPPSFTFGQGTKVEIK | 0.5 nM | 7.73 min | 0.0015 s⁻¹ | 3e+06 M⁻¹ s⁻¹ | 2.22 nM | 2.2 min | 0.00526 s⁻¹ | 2.37e+06 M⁻¹ s⁻¹
L3.PY/L1.PS/H2.HA (antibody, V domains shown, IgG) VH: EVQLLESGGGLVQPGGSLRLSCAASGFTFGSYAMTWVRQAPGKGLEWVSAISHAGGNTFYADSVKGRFTISRDNSKNTLYLQMNSLRAEDTAVYYCARVSPIASGMDYWGQGTLVTVSS VL: EIVLTQSPGTLSLSPGERATLSCRASQSVSSSYPSWYQQKPGQAPRLLIYGASSRATGIPDRFSGSGSGTDFTLTISRLEPEDFAVYYCQHYPYPPSFTFGQGTKVEIK | 3.21 nM | 1.09 min | 0.0106 s⁻¹ | 3.3e+06 M⁻¹ s⁻¹ | 1.86 nM | 4.3 min | 0.00269 s⁻¹ | 1.45e+06 M⁻¹ s⁻¹
